Values joined by “and” are separate entries in the source; they are usually repeats but may differ in a detail not shown here. Equal values may be shown once.
Columns and labels:
[1] = biological target: Theileria parva schizont antigen Tp2, bacterially expressed recombinant protein with His-tag (Theileria parva (Muguga)); experiment: SEC-MALS; apparent dimer fraction from preparative SEC; FPLC (Shimadzu) with Wyatt scattering and refractive index detectors
[2] = biological target: Theileria parva schizont antigen Tp2, bacterially expressed recombinant protein with His-tag (Theileria parva (Muguga)); experiment: SEC; preparative SEC (Generon ProteoSEC 3-70 kD) after affinity chromatography; 20 mM PO4, 250 mM NaCl, 0.02% NaN3, pH 7.5; apparent masses from elution times

- stoichiometry N [1]: 2
- stoichiometry N [2]: 4 and 2
Substance: Theileria parva schizont antigen Tp2, bacterially expressed recombinant protein with His-tag (natural protein)

— article PMC8297500
